Reference: patent US7879792
Blank lines part the entries; values can stand above or below the substance they belong to.

How the values were obtained:
human γ-thrombin (human) = human γ-thrombin (human) (UniProt P00734); assay: inhibition of γ-thrombin hydrolysis of Sar-Pro-Arg-paranitroanilide; Ki from Ki,app by the procedure of Bieth
[1] = biological target: recombinant extracellular domain of human PAR4 (rPAR4EC), Gly18-Arg78 (human) (UniProt Q96RI0); assay: displacement of 15 µM RPPGFK-biotin from plate-bound rPAR4EC; peptide at 1000 µM
[2] = biological target: recombinant extracellular domain of human PAR4 (rPAR4EC), Gly18-Arg78 (human) (UniProt Q96RI0); assay: displacement of 15 µM RPPGFK-biotin from plate-bound rPAR4EC; peptide at 30 µM
[3] = biological target: recombinant extracellular domain of human PAR4 (rPAR4EC), Gly18-Arg78 (human) (UniProt Q96RI0); assay: displacement of 15 µM RPPGFK-biotin from plate-bound rPAR4EC; peptide at 300 µM
human α-thrombin (human) [4] = biological target: human α-thrombin (human) (UniProt P00734); assay: inhibition of α-thrombin hydrolysis of Sar-Pro-Arg-paranitroanilide; Ki from Ki,app by the procedure of Bieth
human α-thrombin (human) [5] = biological target: human α-thrombin (human) (UniProt P00734); assay: cell-based or functional assay

Substance: rOicPaF(p-I) (D-Arg-Oic-Pro-D-Ala-Phe(p-I)) (peptide)
Ki (human γ-thrombin (human)): 59.2 µM

Substance: rOicPaF(p-NO2) (D-Arg-Oic-Pro-D-Ala-Phe(p-NO2)) (peptide)
Ki (human α-thrombin (human) [4]): 10.6 µM | peptide concentration giving significant prolongation (p<0.05) of the APTT of normal human plasma (human α-thrombin (human) [5]): 50 µM | peptide concentration giving significant prolongation (p<0.05) of the PT of normal human plasma (human α-thrombin (human) [5]): 6.25 µM | peptide concentration giving significant prolongation (p<0.05) of the TCT of normal human plasma (human α-thrombin (human) [5]): 1.56 µM | Ki (human γ-thrombin (human)): 87.9 µM

The next substances have a lower Ki (human γ-thrombin (human)) than those just listed; values first:

% of RPPGFK-biotin displaced [1]: 63% | % of RPPGFK-biotin displaced [2]: 19% | Ki (human γ-thrombin (human)): 54.3 µM | % of RPPGFK-biotin displaced [3]: 49%
Substance: rOicPaF(p-Me) (D-Arg-Oic-Pro-D-Ala-Phe(p-Me)) (peptide)

Ki (human γ-thrombin (human)): 48.7 µM
Substance: rOicPaF(p-Br) (D-Arg-Oic-Pro-D-Ala-Phe(p-Br)) (peptide)

Ki (human γ-thrombin (human)): 42.2 µM
Substance: rOicPsF(p-Me) (D-Arg-Oic-Pro-D-Ser-Phe(p-Me)) (peptide)
